The results in this text go back to paper PMC6727741.

The assay deals with IFT dynein heavy chain (D1bHC) (Chlamydomonas reinhardtii (endogenous in cc4533 and wdr92-1 cells)) (UniProt Q9SMH5). Kind of assay: SEC. On the technique in general: SEC sorts molecules by how far they enter the pores of the column.

The term stoichiometry N denotes the number of molecules, sites or subunits per partner or assembly. For the substance “IFT dynein heavy chain (D1bHC), Q9SMH5 1-4334”, the stoichiometry N was found to be 2.
